Measurements published in the supplement of paper PMC7877785.
± gives the uncertainty stated by the source.

Assay: self-splicing fitness, log relative to wild type (ln ratio); higher = more splicing; Tetrahymena group I intron in knt gene, E. coli kanamycin selection, DiMSum; sequences stand for … in CUCUCU…GGAGGGAAAAGUUAUCAGGCAUGCACCUGGUAGCUAGUCUUUAAACCAAUAGAUUGCAUCGGUUUAAAAGGCAAGACCGUCAAAUUGCGGGAAAGGGGUCAACAGCCGUUCAGUACCAAGUCUCAGGGGAAACUUUGAGAUGGCCUUGCAAAGGGUAUGGUAAUAAGCUGACGGACAUGGUCCUAACCACGCAGCCAAGUCCUAAGUCAACAGAUCUUCUGUUGAUAUGGAUGCAGUUCACAGACUAAAUGUCGGUCGGGGAAGAUGUAUUCUUCUCAUAAGAUAUAGUCGGACCUCUCCUUAAUGGGAGCUAGCGGAUGAAGUGAUGCAACACUGGAGCCGCUGGGAACUAAUUUGUAUGCGAAAGUAUAUUGAUUAGUUUUGGAGUACUCGUGGUCG
Procedure, shortened: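 Library with all eight P1ex-region intron nucleotides randomised, intron inside the knt kanamycin-resistance gene on pET-22b(+), in E. coli BL21(DE3). Cells grew overnight at 37°C or 30°C on LB agar with or without 25 μg/mL kanamycin (plus 100 μg/mL carbenicillin, 50 μM IPTG, 0.2% rhamnose), in six replicate transformations. Pooled colonies were amplicon-sequenced on Illumina HiSeq 2500. DiMSum fitness is the error-weighted combination of wild-type-normalised replicate fold changes, kanamycin versus none.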

| Sequence | self-splicing fitness (ln) (30 °C) | self-splicing fitness (ln) (37 °C) |
| --- | --- | --- |
| GAGGAGCAAUAUUACGGCCC | -0.89 ± 0.29 | -0.616 ± 0.49 |
| GAGGAGCAAUAUUACGGCGU | -1.72 ± 0.16 | -0.0856 ± 0.14 |
| GAGGAGCAAUAUUACGGGCU | -2.72 ± 0.48 | -1.83 ± 0.29 |
| GAGGAGCAAUAUUACGGUCG | -1.43 ± 0.14 | -2.19 ± 0.29 |
| GAGGAGCAAUAUUACGGUUG | -3.94 ± 0.23 | -2.17 ± 0.2 |
| GAGGAGCAAUAUUACGUAGA | -4 ± 0.24 | -2.22 ± 0.19 |
| GAGGAGCAAUAUUACGUCAU | -2.41 ± 0.39 | -2.26 ± 0.4 |
| GAGGAGCAAUAUUACGUGUA | – | -3.62 ± 0.35 |
| GAGGAGCAAUAUUACGUUAC | -3.66 ± 0.25 | -3.09 ± 0.4 |
| GAGUAGCAAUAUUACGAAAC | -2.82 ± 0.32 | -2.56 ± 0.27 |
| GAGUAGCAAUAUUACGAACG | -2.36 ± 0.48 | – |
| GAGUAGCAAUAUUACGAAUU | -2.14 ± 0.22 | -1.36 ± 0.17 |
| GAGUAGCAAUAUUACGACUG | 0.34 ± 0.24 | -0.96 ± 0.21 |
| GAGUAGCAAUAUUACGAGAU | -4.02 ± 0.29 | -2.51 ± 0.28 |
| GAGUAGCAAUAUUACGAUAU | -2.42 ± 0.1 | -1.51 ± 0.14 |
| GAGUAGCAAUAUUACGCACC | -0.317 ± 0.25 | -1.31 ± 0.24 |
| GAGUAGCAAUAUUACGCGGC | – | -1.74 ± 0.45 |
| GAGUAGCAAUAUUACGGCCC | -0.847 ± 0.18 | 0.0966 ± 0.35 |
| GAGUAGCAAUAUUACGGCGA | -0.645 ± 0.16 | -0.441 ± 0.2 |
| GAGUAGCAAUAUUACGGCUC | -2.59 ± 0.37 | -2.51 ± 0.48 |
| GAGUAGCAAUAUUACGGGAC | -3.17 ± 0.35 | -1.41 ± 0.22 |
| GAGUAGCAAUAUUACGGGGG | – | -3.08 ± 0.35 |

| Sequence | self-splicing fitness (ln) (30 °C) | self-splicing fitness (ln) (37 °C) |
| --- | --- | --- |
| GAGUAGCAAUAUUACGGUCG | -1.15 ± 0.16 | -0.697 ± 0.19 |
| GAGUAGCAAUAUUACGUCCC | -0.805 ± 0.21 | -0.255 ± 0.23 |
| GAGUAGCAAUAUUACGUUGC | -3.27 ± 0.23 | -1.79 ± 0.27 |
| GAUAAGCAAUAUUACGACCA | -1.18 ± 0.14 | -0.0759 ± 0.21 |
| GAUAAGCAAUAUUACGACUG | -1.18 ± 0.2 | 0.14 ± 0.25 |
| GAUAAGCAAUAUUACGAGAG | -2.84 ± 0.26 | -3.04 ± 0.4 |
| GAUAAGCAAUAUUACGAUUC | -1.39 ± 0.14 | -1.41 ± 0.17 |
| GAUAAGCAAUAUUACGCAAA | -1.8 ± 0.16 | -1.49 ± 0.2 |
| GAUAAGCAAUAUUACGCCGU | -0.976 ± 0.15 | -0.545 ± 0.17 |
| GAUAAGCAAUAUUACGCGCG | -0.359 ± 0.096 | 0.119 ± 0.15 |
| GAUAAGCAAUAUUACGCGUU | -2.05 ± 0.14 | -2.95 ± 0.32 |
| GAUAAGCAAUAUUACGCUGU | -3.45 ± 0.18 | -2.18 ± 0.2 |
| GAUAAGCAAUAUUACGCUUU | -1.7 ± 0.14 | -2.17 ± 0.21 |
| GAUAAGCAAUAUUACGGAAU | -3.09 ± 0.14 | -2.28 ± 0.14 |
| GAUAAGCAAUAUUACGGCAU | -0.333 ± 0.06 | 0.188 ± 0.085 |
| GAUAAGCAAUAUUACGGCUC | -0.362 ± 0.17 | 0.29 ± 0.2 |
| GAUAAGCAAUAUUACGGGGU | -3.97 ± 0.25 | -1.74 ± 0.16 |
| GAUAAGCAAUAUUACGGUGU | -2.61 ± 0.12 | -1.59 ± 0.11 |
| GAUAAGCAAUAUUACGUACG | -1.67 ± 0.1 | -0.494 ± 0.11 |
| GAUAAGCAAUAUUACGUAGA | -3.26 ± 0.22 | -0.548 ± 0.14 |
| GAUAAGCAAUAUUACGUAGG | -3.01 ± 0.13 | -1.86 ± 0.15 |
